From patent US20220298218A1 (ANTAG THERAPEUTICS, published 2022)
Like-named read-outs stand apart in the source and are kept apart here. *1 amine or outer side, *2 acyl side, *3 side chain or, on linkers, in order; H or OH if unused. Where no end group is shown, it is not given here. Side-chain parts run from the residue outwards. The star is where a group is joined. C18 diacid = O=C(O)CCCCCCCCCCCCCCCCC(=O)*; C16 diacid = O=C(O)CCCCCCCCCCCCCCC(=O)*; γGlu = O=C(O)[C@H](CCC(=O)[*:2])N[*:1]; AEEA = NCCOCCOCC(=O)O

B1: AT467 (peptide)
peptide: EGTFISDYSIAMDKIK(C16 diacid)QQDFVNWLLAQKGPSSGAPPP-OH
modifications: N-terminus assumed
SMILES: CC[C@H](C)[C@H](NC(=O)[C@H](CO)NC(=O)[C@H](Cc1ccc(O)cc1)NC(=O)[C@H](CC(=O)O)NC(=O)[C@H](CO)NC(=O)[C@@H](NC(=O)[C@H](Cc1ccccc1)NC(=O)[C@@H](NC(=O)CNC(=O)[C@@H](N)CCC(=O)O)[C@@H](C)O)[C@@H](C)CC)C(=O)N[C@@H](C)C(=O)N[C@@H](CCSC)C(=O)N[C@@H](CC(=O)O)C(=O)N[C@@H](CCCCN)C(=O)N[C@H](C(=O)N[C@@H](CCCCNC(=O)CCCCCCCCCCCCCCC(=O)O)C(=O)N[C@@H](CCC(N)=O)C(=O)N[C@@H](CCC(N)=O)C(=O)N[C@@H](CC(=O)O)C(=O)N[C@@H](Cc1ccccc1)C(=O)N[C@H](C(=O)N[C@@H](CC(N)=O)C(=O)N[C@@H](Cc1c[nH]c2ccccc12)C(=O)N[C@@H](CC(C)C)C(=O)N[C@@H](CC(C)C)C(=O)N[C@@H](C)C(=O)N[C@@H](CCC(N)=O)C(=O)N[C@@H](CCCCN)C(=O)NCC(=O)N1CCC[C@H]1C(=O)N[C@@H](CO)C(=O)N[C@@H](CO)C(=O)NCC(=O)N[C@@H](C)C(=O)N1CCC[C@H]1C(=O)N1CCC[C@H]1C(=O)N1CCC[C@H]1C(=O)O)C(C)C)[C@@H](C)CC
B2: AT441 (peptide)
peptide: SGTFISDYSIAMDRIK([AEEA-AEEA-γGlu-C18 diacid])QQDFVNWLLAQRGPSSGAPPPS-OH
modifications: N-terminus assumed
SMILES: CC[C@H](C)[C@H](NC(=O)[C@H](CO)NC(=O)[C@H](Cc1ccc(O)cc1)NC(=O)[C@H](CC(=O)O)NC(=O)[C@H](CO)NC(=O)[C@@H](NC(=O)[C@H](Cc1ccccc1)NC(=O)[C@@H](NC(=O)CNC(=O)[C@@H](N)CO)[C@@H](C)O)[C@@H](C)CC)C(=O)N[C@@H](C)C(=O)N[C@@H](CCSC)C(=O)N[C@@H](CC(=O)O)C(=O)N[C@@H](CCCNC(=N)N)C(=O)N[C@H](C(=O)N[C@@H](CCCCNC(=O)COCCOCCNC(=O)COCCOCCNC(=O)CC[C@H](NC(=O)CCCCCCCCCCCCCCCCC(=O)O)C(=O)O)C(=O)N[C@@H](CCC(N)=O)C(=O)N[C@@H](CCC(N)=O)C(=O)N[C@@H](CC(=O)O)C(=O)N[C@@H](Cc1ccccc1)C(=O)N[C@H](C(=O)N[C@@H](CC(N)=O)C(=O)N[C@@H](Cc1c[nH]c2ccccc12)C(=O)N[C@@H](CC(C)C)C(=O)N[C@@H](CC(C)C)C(=O)N[C@@H](C)C(=O)N[C@@H](CCC(N)=O)C(=O)N[C@@H](CCCNC(=N)N)C(=O)NCC(=O)N1CCC[C@H]1C(=O)N[C@@H](CO)C(=O)N[C@@H](CO)C(=O)NCC(=O)N[C@@H](C)C(=O)N1CCC[C@H]1C(=O)N1CCC[C@H]1C(=O)N1CCC[C@H]1C(=O)N[C@@H](CO)C(=O)O)C(C)C)[C@@H](C)CC
B3: AT468 (peptide)
peptide: EGTFISDYSIAMDKIK(C16 diacid)QQDFVNWLLAQKGPSSGAPP-OH
modifications: N-terminus assumed
SMILES: CC[C@H](C)[C@H](NC(=O)[C@H](CO)NC(=O)[C@H](Cc1ccc(O)cc1)NC(=O)[C@H](CC(=O)O)NC(=O)[C@H](CO)NC(=O)[C@@H](NC(=O)[C@H](Cc1ccccc1)NC(=O)[C@@H](NC(=O)CNC(=O)[C@@H](N)CCC(=O)O)[C@@H](C)O)[C@@H](C)CC)C(=O)N[C@@H](C)C(=O)N[C@@H](CCSC)C(=O)N[C@@H](CC(=O)O)C(=O)N[C@@H](CCCCN)C(=O)N[C@H](C(=O)N[C@@H](CCCCNC(=O)CCCCCCCCCCCCCCC(=O)O)C(=O)N[C@@H](CCC(N)=O)C(=O)N[C@@H](CCC(N)=O)C(=O)N[C@@H](CC(=O)O)C(=O)N[C@@H](Cc1ccccc1)C(=O)N[C@H](C(=O)N[C@@H](CC(N)=O)C(=O)N[C@@H](Cc1c[nH]c2ccccc12)C(=O)N[C@@H](CC(C)C)C(=O)N[C@@H](CC(C)C)C(=O)N[C@@H](C)C(=O)N[C@@H](CCC(N)=O)C(=O)N[C@@H](CCCCN)C(=O)NCC(=O)N1CCC[C@H]1C(=O)N[C@@H](CO)C(=O)N[C@@H](CO)C(=O)NCC(=O)N[C@@H](C)C(=O)N1CCC[C@H]1C(=O)N1CCC[C@H]1C(=O)O)C(C)C)[C@@H](C)CC
B4: AT439 (peptide)
peptide: SGTFISDYSIAMDRIK([AEEA-AEEA-γGlu-C16 diacid])QQDFVNWLLAQRGPSSGAPPPS-OH
modifications: N-terminus assumed
SMILES: CC[C@H](C)[C@H](NC(=O)[C@H](CO)NC(=O)[C@H](Cc1ccc(O)cc1)NC(=O)[C@H](CC(=O)O)NC(=O)[C@H](CO)NC(=O)[C@@H](NC(=O)[C@H](Cc1ccccc1)NC(=O)[C@@H](NC(=O)CNC(=O)[C@@H](N)CO)[C@@H](C)O)[C@@H](C)CC)C(=O)N[C@@H](C)C(=O)N[C@@H](CCSC)C(=O)N[C@@H](CC(=O)O)C(=O)N[C@@H](CCCNC(=N)N)C(=O)N[C@H](C(=O)N[C@@H](CCCCNC(=O)COCCOCCNC(=O)COCCOCCNC(=O)CC[C@H](NC(=O)CCCCCCCCCCCCCCC(=O)O)C(=O)O)C(=O)N[C@@H](CCC(N)=O)C(=O)N[C@@H](CCC(N)=O)C(=O)N[C@@H](CC(=O)O)C(=O)N[C@@H](Cc1ccccc1)C(=O)N[C@H](C(=O)N[C@@H](CC(N)=O)C(=O)N[C@@H](Cc1c[nH]c2ccccc12)C(=O)N[C@@H](CC(C)C)C(=O)N[C@@H](CC(C)C)C(=O)N[C@@H](C)C(=O)N[C@@H](CCC(N)=O)C(=O)N[C@@H](CCCNC(=N)N)C(=O)NCC(=O)N1CCC[C@H]1C(=O)N[C@@H](CO)C(=O)N[C@@H](CO)C(=O)NCC(=O)N[C@@H](C)C(=O)N1CCC[C@H]1C(=O)N1CCC[C@H]1C(=O)N1CCC[C@H]1C(=O)N[C@@H](CO)C(=O)O)C(C)C)[C@@H](C)CC
B5: AT469 (peptide)
peptide: EGTFISDYSIAMDKIK(C16 diacid)QQDFVNWLLAQKGPSSGAP-OH
modifications: N-terminus assumed
SMILES: CC[C@H](C)[C@H](NC(=O)[C@H](CO)NC(=O)[C@H](Cc1ccc(O)cc1)NC(=O)[C@H](CC(=O)O)NC(=O)[C@H](CO)NC(=O)[C@@H](NC(=O)[C@H](Cc1ccccc1)NC(=O)[C@@H](NC(=O)CNC(=O)[C@@H](N)CCC(=O)O)[C@@H](C)O)[C@@H](C)CC)C(=O)N[C@@H](C)C(=O)N[C@@H](CCSC)C(=O)N[C@@H](CC(=O)O)C(=O)N[C@@H](CCCCN)C(=O)N[C@H](C(=O)N[C@@H](CCCCNC(=O)CCCCCCCCCCCCCCC(=O)O)C(=O)N[C@@H](CCC(N)=O)C(=O)N[C@@H](CCC(N)=O)C(=O)N[C@@H](CC(=O)O)C(=O)N[C@@H](Cc1ccccc1)C(=O)N[C@H](C(=O)N[C@@H](CC(N)=O)C(=O)N[C@@H](Cc1c[nH]c2ccccc12)C(=O)N[C@@H](CC(C)C)C(=O)N[C@@H](CC(C)C)C(=O)N[C@@H](C)C(=O)N[C@@H](CCC(N)=O)C(=O)N[C@@H](CCCCN)C(=O)NCC(=O)N1CCC[C@H]1C(=O)N[C@@H](CO)C(=O)N[C@@H](CO)C(=O)NCC(=O)N[C@@H](C)C(=O)N1CCC[C@H]1C(=O)O)C(C)C)[C@@H](C)CC
B6: AT437 (peptide)
peptide: SGTFISDYSIAMDKIK([AEEA-AEEA-γGlu-C18 diacid])QQDFVNWLLAQKGPSSGAPPPS-OH
modifications: N-terminus assumed
SMILES: CC[C@H](C)[C@H](NC(=O)[C@H](CO)NC(=O)[C@H](Cc1ccc(O)cc1)NC(=O)[C@H](CC(=O)O)NC(=O)[C@H](CO)NC(=O)[C@@H](NC(=O)[C@H](Cc1ccccc1)NC(=O)[C@@H](NC(=O)CNC(=O)[C@@H](N)CO)[C@@H](C)O)[C@@H](C)CC)C(=O)N[C@@H](C)C(=O)N[C@@H](CCSC)C(=O)N[C@@H](CC(=O)O)C(=O)N[C@@H](CCCCN)C(=O)N[C@H](C(=O)N[C@@H](CCCCNC(=O)COCCOCCNC(=O)COCCOCCNC(=O)CC[C@H](NC(=O)CCCCCCCCCCCCCCCCC(=O)O)C(=O)O)C(=O)N[C@@H](CCC(N)=O)C(=O)N[C@@H](CCC(N)=O)C(=O)N[C@@H](CC(=O)O)C(=O)N[C@@H](Cc1ccccc1)C(=O)N[C@H](C(=O)N[C@@H](CC(N)=O)C(=O)N[C@@H](Cc1c[nH]c2ccccc12)C(=O)N[C@@H](CC(C)C)C(=O)N[C@@H](CC(C)C)C(=O)N[C@@H](C)C(=O)N[C@@H](CCC(N)=O)C(=O)N[C@@H](CCCCN)C(=O)NCC(=O)N1CCC[C@H]1C(=O)N[C@@H](CO)C(=O)N[C@@H](CO)C(=O)NCC(=O)N[C@@H](C)C(=O)N1CCC[C@H]1C(=O)N1CCC[C@H]1C(=O)N1CCC[C@H]1C(=O)N[C@@H](CO)C(=O)O)C(C)C)[C@@H](C)CC

Experiments:
human GIP receptor [1] = target: T1, human GIP receptor (human, UniProt P48546 22-466); assay: cell-based or functional assay
T1 sequence (looked up): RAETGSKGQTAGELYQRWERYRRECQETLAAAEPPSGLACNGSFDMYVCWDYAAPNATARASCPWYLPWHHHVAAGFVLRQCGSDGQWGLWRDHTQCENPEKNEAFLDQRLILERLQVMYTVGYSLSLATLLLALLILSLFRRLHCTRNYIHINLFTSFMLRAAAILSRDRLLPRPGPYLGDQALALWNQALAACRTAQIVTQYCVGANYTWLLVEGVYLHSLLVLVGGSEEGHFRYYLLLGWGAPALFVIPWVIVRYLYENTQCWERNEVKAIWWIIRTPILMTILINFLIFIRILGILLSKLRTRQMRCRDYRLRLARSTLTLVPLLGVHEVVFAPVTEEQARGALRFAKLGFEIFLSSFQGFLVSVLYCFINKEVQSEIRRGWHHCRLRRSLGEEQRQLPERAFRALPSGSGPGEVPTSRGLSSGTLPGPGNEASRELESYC

human GIP receptor [2] = target: T1, human GIP receptor; assay: cell-based or functional assay; remark: listed apart in the source

Binder	cAMP antagonism (human GIP receptor [1]) [nM]	cAMP antagonism % inhib (human GIP receptor [1]) [%]	cAMP antagonism log (human GIP receptor [1]) [log M]	cAMP agonism % Emax (human GIP receptor [2]) [%]	cAMP antagonism (human GIP receptor [2]) [nM]	cAMP antagonism % inhib (human GIP receptor [2]) [%]	cAMP antagonism pIC50 (human GIP receptor [2])	cAMP agonism Emax (human GIP receptor [1])
B1	6	100	-8.2	0	14.7	86	7.8	
B2	25	55	-7.6	0	21.5	89	7.7	
B3	13	95	-7.9	0	12.6	92	7.9	4.6
B4	9	100	-8	0	14.7	93	7.8	
B5	3	90	-8.5	0	3.8	93	8.4	
B6	8	100	-8.1	0	35.5	83	7.5	
